According to PMC5522101:

Molecular target: VPAC1-C37/A-EYFP (Cys37/Ala mutant of VPAC1 fused with enhanced yellow fluorescent protein) (mouse (stated for the cDNA; the primers of Table 1 and residues 31-457 fit human VPAC1)) (UniProt P97751)
Assay: radioligand binding; competition binding on the cell membrane fraction of CHO cells (50 ug protein/ml): 1 nM [125I]-VIP with or without unlabelled VIP, 60 min at 30°C at equilibrium; nonspecific binding with 2 uM unlabelled peptide; data calibrated by the EYFP fluorescence of the membrane fraction

B1: vasoactive intestinal peptide (peptide)
peptide: HSDAVFTDNYTRLRKQMAVKKYLNSILN
**Q.** B1 was tested. Which Kd did it give?
**A.** 0.42 nM
